Data from patent publication US20090305241, “DNA demethylases and uses thereof” (REGENTS OF THE UNIVERSITY OF CALIFORNIA, published 2009).
Residue numbers refer to the chain shown, from its start.

How the values were obtained:
[1] = target: T1, DME (MBP-Δ537DME, wild-type glycosylase domain) (UniProt Q8LK56); assay: cleavage_in_vitro; settings: abasic at top position 18; 5mC at bottom position 19; rate reduced approximately 10-fold
T1 sequence: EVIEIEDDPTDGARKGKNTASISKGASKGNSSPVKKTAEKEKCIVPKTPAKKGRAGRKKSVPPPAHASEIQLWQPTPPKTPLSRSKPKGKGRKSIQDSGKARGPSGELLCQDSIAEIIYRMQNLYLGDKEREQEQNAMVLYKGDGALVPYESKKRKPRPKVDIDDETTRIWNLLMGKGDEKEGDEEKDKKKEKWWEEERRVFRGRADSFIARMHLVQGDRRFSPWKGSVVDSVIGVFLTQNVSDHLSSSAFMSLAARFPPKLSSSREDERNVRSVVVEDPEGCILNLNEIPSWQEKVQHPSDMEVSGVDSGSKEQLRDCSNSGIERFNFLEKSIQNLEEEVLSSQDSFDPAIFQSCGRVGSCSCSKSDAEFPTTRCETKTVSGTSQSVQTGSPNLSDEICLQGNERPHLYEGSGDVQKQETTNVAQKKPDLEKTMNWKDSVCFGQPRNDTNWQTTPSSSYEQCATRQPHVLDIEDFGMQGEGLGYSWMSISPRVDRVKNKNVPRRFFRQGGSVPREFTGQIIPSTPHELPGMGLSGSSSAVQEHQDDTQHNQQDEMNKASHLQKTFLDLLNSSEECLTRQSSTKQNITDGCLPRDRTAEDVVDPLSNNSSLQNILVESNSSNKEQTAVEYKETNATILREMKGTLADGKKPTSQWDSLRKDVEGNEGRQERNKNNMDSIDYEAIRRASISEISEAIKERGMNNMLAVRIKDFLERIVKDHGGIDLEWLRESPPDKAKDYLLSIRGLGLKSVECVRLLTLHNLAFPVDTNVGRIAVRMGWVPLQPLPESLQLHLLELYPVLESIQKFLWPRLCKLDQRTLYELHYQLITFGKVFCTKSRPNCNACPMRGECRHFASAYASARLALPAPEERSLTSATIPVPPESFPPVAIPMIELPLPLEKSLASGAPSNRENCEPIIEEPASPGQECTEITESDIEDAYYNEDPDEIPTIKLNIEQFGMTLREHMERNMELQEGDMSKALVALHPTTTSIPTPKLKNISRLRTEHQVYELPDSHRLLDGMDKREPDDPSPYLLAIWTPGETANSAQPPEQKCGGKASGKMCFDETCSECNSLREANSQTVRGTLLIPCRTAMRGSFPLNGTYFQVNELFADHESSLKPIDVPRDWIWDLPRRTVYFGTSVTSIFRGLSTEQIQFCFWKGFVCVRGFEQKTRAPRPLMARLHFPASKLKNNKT

DME K1286Q (MBP-Δ537DME) = target: T2, DME K1286Q (MBP-Δ537DME) (UniProt Q8LK56 SEQ:538-1729, K1286Q); assay: no trapping or lyase activity detected (catalytic mutant); settings: tags: N-terminal MBP; label: 5'-32P top strand
T2 sequence: T1 sequence with K749Q
Experimental: (§1) 5′-labeled oligonucleotide substrates (13.3 nM) were incubated with DME protein (250 nM) in a 15 μl reaction with 40 mM HEPES-KOH (pH 8.0), 0.1 M KCl, 0.1 mM EDTA, 0.5 mM dithiothreitol, and 200 μg/mL BSA at 37° for 1 hr. The reaction was terminated with 15 μl of 95% formamide, 20 mM EDTA, 0.05% bromophenol blue, 0.05% xylene cyanol FF and boiled for 5 min. To induce […], NaOH was added at a final concentration of 0.1 M and the reaction was boiled for 7 min. Products were fractionated on a 15% polyacrylamide gel containing 7.5 M urea and 1×TBE. Electrophoresis was done at 1000V for 4 hrs with a Hoefer SQ3 gel apparatus. The gel was exposed to Kodak BioMax MR film at −80°. Methods for purification of recombinant DME, oligonucleotide substrates, NaBH₄ trapping, and toxicity in E. coli are in the Supplemental Experimental Procedures.
(§2) 5′-labeled oligonucleotide substrates (13.3 nM) were incubated with DME protein (250 nM) in a 15 μl reaction with 40 mM HEPES-KOH (pH 8.0), 0.1 M KCl, 0.1 mM EDTA, 0.5 mM dithiothreitol, and 200 μg/mL BSA at 37°. After 1 hr of incubation, 1 M NaBH₄ was added to a final concentration of 100 mM and the reaction tubes were placed at 37° for an additional 10 min. An equal volume of 2×SDS-PAGE loading buffer (90 mM Tris-HCl, pH 6.8, 20% glycerol, 2% SDS, 0.02% bromophenol blue, 100 mM dithiothreitol) was added to terminate the trapping reaction. […]

DME D1304N (MBP-Δ537DME) = target: T3, DME D1304N (MBP-Δ537DME) (UniProt Q8LK56 SEQ:538-1729, D1304N); assay: as above; settings: tags: N-terminal MBP (pMAL-c2x); label: 5'-32P top strand
T3 sequence: T1 sequence with D767N
Experimental: as §1, §2

[2] = target: T4, DME (MBP-Δ537DME, wild-type glycosylase domain) (UniProt Q8LK56 SEQ:538-1729); assay: NaBH4-trapped covalent complex (~200 kd); 40 mM HEPES-KOH pH 8.0, 0.1 M KCl, 37 C; settings: tags: N-terminal MBP (pMAL-c2x), expressed in E. coli Rosetta; label: 5'-32P top strand
T4 chain: T1 sequence
Source text: DME breaks the phosophodiester linkage on the 3′-side of a 5-methylcytosine residue (hemimethylated substrate) and generates end-labeled DNAs that migrate on denaturing polyacrylamide gels at the predicted position for β-elimination products (FIG. 3C). The subsequent cleavage of the phosphodiester linkage on the 5′-side yields δ-elimination products through the same mechanism found in related DNA glycosylases (Bhagwat, M. and Gerlt, J. A., Biochemistry, 35, 659-665 (1996)). Treatment of products with strong base (NaOH) prior to gel electrophoresis confirmed the δ-elimination process at the predicted position (FIG. 3C). […] No lyase activity (FIG. 3E) or covalent trapping (FIG. 3D) was detected when DME was incubated with non-methylated oligonucleotides, or when hemimethylated substrate was incubated with no enzyme or mutant enzymes (D1304N or K1286Q). Plants have 5-methylcytosine in the three sequence contexts; CpG, CpNpG, and CpNpN (Bender, J., Ann Rev Plant Biology, 55, 41-68 (2004)). DME has activity on 5-methylcytosine in each of these sequence contexts (FIG. 3E). We detected no DME activity when single-stranded oligonucleotides with 5-methylcytosine were used in the reaction (data not shown). […]

[3] = target: T4, DME (MBP-Δ537DME, wild-type glycosylase …); assay: NaBH4-trapped covalent complex; settings: tags: N-terminal MBP (pMAL-c2x), expressed in E. coli Rosetta; label: 5'-32P top strand; T/G mismatch
Experimental: 5′-labeled oligonucleotide substrates (13.3 nM) were incubated with DME protein (250 nM) in a 15 μl reaction with 40 mM HEPES-KOH (pH 8.0), 0.1 M KCl, 0.1 mM EDTA, 0.5 mM dithiothreitol, and 200 μg/mL BSA at 37°. After 1 hr of incubation, 1 M NaBH₄ was added to a final concentration of 100 mM and the reaction tubes were placed at 37° for an additional 10 min. An equal volume of 2×SDS-PAGE loading buffer (90 mM Tris-HCl, pH 6.8, 20% glycerol, 2% SDS, 0.02% bromophenol blue, 100 mM dithiothreitol) was added to terminate the trapping reaction. Products were boiled for 10 min before loading onto a 10% SDS-PAGE gel. The wet gel was exposed to Kodak Biomax MS film for 12-18 h at −80°.

## CTATACCTCCTCAACTCABAICGGTCACCGTCTCCGGCG / CGCCGGAGACGGTGACNGGAGTTGAGGAGGTATAG [abasic 18 opposite meC (MEA-1.6F18AP / MEA-1.6R17meC)]
[1]
  relative cleavage rate (fold rate vs hemimethylated): 0.1

B1: hemimethylated meCpG (MEA-1.6F18meC / MEA-1.6R) (dsDNA)
DNA 1: CTATACCTCCTCAACTCCGGTCACCGTCTCCGGCG
DNA 2: CGCCGGAGACGGTGACCGGAGTTGAGGAGGTATAG
modifications: 5mC at position 18 of top strand [top 18 (5mC)]
DME K1286Q (MBP-Δ537DME)
  binding result: no binding
DME D1304N (MBP-Δ537DME)
  binding result: no binding
[2]
  binding result: binds

B2: T/G mismatch (MEA-1.6F18T / MEA-1.6R) (dsDNA)
DNA 1: B1 DNA 1 with C18T
DNA 2: B1 DNA 2
[3]
  binding result: binds
